Test results published in a protein production outcome set (Wang et al. 2014).

Test: label from the status in PepcDB records

| Sequence | protein production |
| --- | --- |
| MKAPRLIGAEIFRHSSYGRWHPLRVPRVSTVMDLSRAMGWLPPAQFITAPRAKPKALLAWHTADYIAALQRVEATQEATPHDTQRHDIGTVTNPVYPEIFRRPATAAGGSLLAGELLREGGIIYNPPGGTHHGMPDRANGFCYLNDPVLAMLSLRRNGVQRIAYVDIDAHHCDGVAAGFHGDPQCLMISVHEEGLWPRTGLLEDTAGGAGLNLPVPRGLNDTEMAYIRDRLILPQVEAFRPDAVVLLCGADGVEEDPLAHLCLSNNAHWAVTKALMGIAPRMLVLGGGGYNPWSVGRLWTGVWATLNGHDIPDRLPPEAQAVLRALRFEGNRRGKNPPEHWFTTLRDAPRPGPVRSDITDRVAELSRKAARLRLDH | failed |
| EMRLEKDRFSVNLDVKHFSPEELKVKVLGDVIEVHGKHEERQDEHGFISREFHRKYRIPADVDPLTITSSLSSDGVLTVNGPRKQVSGPERTIPIT | failed |
| MQLQVMNSPFNQEQAELLNRLLPTLTESQKIWLSGYLSAQSVSAQEAAGTPAAAVSAEAPAPAVSKEVTVLYGSQTGNAQGLAENAGKQLEQSGFQVTVSSMSDFKPNQLKKVTNLLIVVSTHGEGEPPDNALSFHEFLHGRRAPKLEDLRFSVLALGDSSYEFFCQTGKEFDQRLEELGGKRISPRVDCDLDYDEPAAEWLEGVLKGLNEAGGGSAAPAPAAASQTGESSYSRTNPFRAEVLENLNLNGRGSNKETRHVELSLEGSGLTYEPGDSLGVYPENDPELVELLLKEMNWDPEEIVTLNKQGDVRPLKEALISHYEITVLTKPLLEQAAQLTGNDELRELLAPGNEENVKAYIEGRDLLDLVRDYGPFSVSAQEFVSILRKMPARLYSIASSLSANPDEVHLTIGAVRYDAHGRERKGVCSILCAERLQPGDTLPVYVQHNQNFKLPKDPETPIIMVGPGTGVAPFRSFMQEREETGAEGKAWMFFGDQHFVTDFLYQTEWQNWLKDGVLTKMDVAFSRDTEEKVYVQHRMLEHSAELFEWLQEGAAVYICGDEKHMAHDVHNTLLEIIEKEGNMSREEAEAYLADMQQQKRYQRDVY | failed |
| MTQAFSRVRFIMTQPSHPGNVGSAARAIKTMGFGELVLVAPRFPDMTAQPEAVALASGALDVLERAAVHDTLEEALAPVTLAFALTTRVRDLGPPPCDIREAAGLARRHLDDTEAGVVAIVLGTERAGLTNAQIELCHRICHIPANPQYSSLNVAQALQLAAWELRYALLAGTGQSLLPASSAQQANPGAAPADGAAVQALLAHWEQALVAVGFLDPAHPKKLMPRMKHLLTRSALSRDEVDMLRGVCTAMIAPNRPK | not failed |
| MQAAVTVTPARLPELLLGLATVRPVFLWGAPGIGKSSLVRNFADSLGLECVSLLGTQLAPEDLIGVPQIRDGRSVFCPPESIARDEPYCLFLDELNAATPDVQKAFYSLILDRRIGNYELPKGSLVIGAGNRATDNALARPIASALVNRLTHVHLDASAKDWLVWAGENGIHPWITDHLTDRPDHLWSKPPKTEEPFSTPRSWHMLSDALHSFGQDLDEETLKVLAHGTLTPAHATAFCGYVKIVRSRFGIEAILKGEARWPSRIEDRDLLYYLAESFRGRLVKELPASKEHMSANGRQTAYRAKSLLVQLAEISVEVAQSVIASDADGNPLLPAWFLVEAARDMPRLVEARRLEHHHHHH | failed |
| MCEIFIRANQRSYSVQARSLRLHGVATSVRLEQLFWDVLEEIAARDGMRVTQLIERLYDELVQYRGEAANFTSFLRVCCLRYQVLQAEGRIPADATVPIRSLDAQAVLRGLPANLYDSRPLG | not failed |
| NGSERGVLLSVIDRTEERHAKGLRRQVDHRFDKLVGTISEGVLLMDDTGVFRDGNEAAQNILGRSLDEIIGSRFDDDIWNGLREDGSPLPNVEFPFWRAYVEREPVQEEVMGVYPPDAPPRWIRVNAQPLFRSGQEAPYAVLVSFDDITDERLKEEALQTSRDLLSSVLSSSL | failed |
| MMSAQRVVRTVRTARAISTALAVAIVLGTGVAWSSVRSFEDGIFHMSAPSLGHGGDDGAIDILLVGLDSRTDAHGNPLSAEELATLHAGDEEATNTDTIILIRVPNNGKSATAISIPRDSYVAAPGLGKTKINGVYGQTRETKRAGLVQAGASPTEAAAAGTEAGREALIKTVADLTGVTVDHYAEIGLLGFALIADALGGVDVCLKEPVYEPLSGADFPAGRQKLNGPQALSFVRQRHDLPRGDLDRVVRQQAVMAALAHRVISGQTLSSPATLKRLEQAVQRSVVLSSGWDIMDFVRQLQKLAGGNVAFATIPVLDGAGWSDDGMQSVVRVDPRQVQDWVVGLLHEQDQGKTDELAYTPAKTTANVVNDTDINGLAAAVSKVLSSKGFTTGSVGNNDGDHVPGSQVRAAKADDLGAQQVAKELGGLPVVADASIAPGSVRVVLANDYSGPGSGLGGSDPNGVVSPARAFNLGSADDTTPPPSPILTAGSDAPECIN | failed |
| MGIIDRRRRRAVLVVAVVAAVLIFVADALSPIDGAVAVLYTGVVLMVAPLGRKFIVVAGYISAVLALTAFLWGHASDLVGGALLRLVVSLVAILITVLLSMRDRSARISLAEQVRILEASHDTVIIRDSAGIVRYWNEGAERLYGRSRDQAIGRHYAELFDESAPVDEIDRSMREAGSWSGEVVRTRRDGARLILASRWLQRRDPEGRAIGVIEASADLTESRRAQAEQRRSERRYSTIFNSAGFAALECDLSDALSLVLSAGADVAASLRADPALLAAAVERIVICEANPAALEMFDADGPGELIVAELLAFSIPDARQALETIFVALTTGSTQIETETRFITRRGRTIDAVLRLSVLPDGTDWSRVLLMAVDVTERNEARTKIERISAELAHAGRVSVLGQLAASIAHEVNQPLAAIINYGKSGKRWLVRPTSDIGEVAECLDKIVSNANRAAEVVGRVRFLARKSAPLTDSVDLVVMLQDAIELLRREIHSVKATVRVELSTPIAMIDCDRVQVQQVFVNLLMNALQAMRGIDGHRQILVRIEDSGDSLTVAVCDTGVGIAGDPARIFEPFFSTKSDGMGLGLSICRTIIEGQGGQILASNNDGPGATVAFTLLRNNPDEGRHNRRLIS | failed |
| MMKILGLIGGMSWESTIPYYRMINQHVKAQLGGLHSAKIILYSVDFHEIEQLQAKGDWQTAAQLLSNAAISLKHAGAEVIVVCTNTMHKVADDIEAACGLPLLHIADATAVQIKQQGIDKIGLLGTRYTMEQGFYRGRLTEKHGIEVITPDDTDREAVNRIIYEELCLGIISETSRDAYRRVIKKLEAQGVQGIIFGCTEITLLVNAQDASVPVFDTTAIHASAAADYALQ | not failed |
| MLAAAVLPKLLRHMPLSMPMVFLGSGILAFTLLPELPDPDPVKYGDFTTHLTEVCVIISLMGAGLALDRPFRWRGWSTTWRLLGIVMPLCILVMTLLGLWVLGLGLAGAILVAGAIAPTDPVLASEVQVGKPADAEDDPDEDEVRFALTSEAGLNDGLAFPFVYLAILISLVGASPDAWLGEWVALDVLWRTVAGVLVGFGTGKLLSMFFFAAKGKTFRLSEHSEGFVALAATFLAYGAAEMVEGYGFVAVFLCALTIRSAEHNHSYHQVLHSYVEQLERLMTVVILVLLGGAIARGLLEGIGWTEVLVALAFLLLVRPLAGWLGLMGGKTGPRERLAISYFGIRGIGSLFYVAYALTHGNFDAEARELWALIGLVVALSIVVHGATTAPLMNRLDRLRVAEARKQHGDEGRAPTTAV | failed |
| MMRRVSLGSRLALLFAACTATVSLGAGLLFSRASEQHFVELDQQLLDSRLSLFRTQLAGVSTADELQARLPALRDELSHQADLALRISASNGATWFESRSGLPHAAQATGLATLHAPGIDYRSLSVPLTQGAMQSPRLTLYLDITHHQHFLQGMQRLIWLTVGLSALITALLGAWAARSGLRPLRQMGQVAASVSARSLTTRLPVAQMPEELAELASSMNAMLQRLDDAFQRLSAFSADIAHELRTPLSNLLTHTQVTLTRPRSLEEYREALHGNLEELQWMAQMINDMLFLAKADHGLLVPGDAPLALHDEVDALLEYYAPLAEDSDVQMLREGEAVLHGDQHMLRRALSNLLDNAMRFTPAGGQIKVTLGPGPTINVANTGLAIDPAALPRLFDRFYRVDPARREGSSEHAGLGLAITRSIVQAHGGCIRAECEGGWTRFVIEFTQDR | failed |
| MSGRYEIRFSGAGGQGLILAGVIMAEAASIYDGKQAVQSQSYGPEARGGASKSEVIISDGPVDYPKATQCDALLALTQEACDKYSADLKEGGVLLVDSDLVTKLPPGNYQTTAFNIINTAKNDVGREIVANIVALGAMVALTGVVSKEAAEKAVLSRVPEAFVELNRKAFQMGFEKALAAKK | failed |
